From patent US20150139996A1

Key:
[1] = biological target: IgG1 heavy chain with CH3 construct 78 (T366E) (human) [IgG part: P01857]; assay: SDS-PAGE of protein A-purified supernatant; construct expressed alone
[2] = biological target: IgG1 heavy chain with CH3 construct 77 (L351R) (human) [IgG part: P01857]; assay: native MS; combination 1 co-expressed (A: VH MF1337, B: VH MF1122)
[3] = biological target: IgG1 heavy chain with CH3 construct 78 (T366E) (human) [IgG part: P01857]; assay: as above
[4] = biological target: IgG1 heavy chain with CH3 construct 75 (L351D, Y349D, R355D) (human) [IgG part: P01857]; assay: SDS-PAGE of protein A-purified supernatant; construct expressed alone
[5] = biological target: IgG1 heavy chain with CH3 construct 75 (L351D, Y349D, R355D) (human) [IgG part: P01857]; assay: native MS; combination 9 co-expressed (A: VH MF1337, B: VH MF1122)
[6] = biological target: IgG1 heavy chain with CH3 construct 3 (K392D, K409D, K439D) (human) [IgG part: P01857]; assay: SDS-PAGE of protein A-purified supernatant; construct expressed alone
[7] = biological target: IgG1 heavy chain with CH3 construct 3 (K392D, K409D, K439D) (human) [IgG part: P01857]; assay: native MS; transfection F: vector VIII alone (tetanus VH, construct 3)
[8] = biological target: IgG1 heavy chain with CH3 construct 3 (K392D, K409D, K439D) (human) [IgG part: P01857]; assay: native MS; transfection E: vector VII alone (fibrinogen VH, construct 3)
[9] = biological target: IgG1 heavy chain with CH3 construct 70 (L351E, Y349E) (human) [IgG part: P01857]; assay: native MS; combination 4 co-expressed (A: VH MF1337, B: VH MF1122)
[10] = biological target: IgG1 heavy chain with CH3 construct 70 (L351E, Y349E) (human) [IgG part: P01857]; assay: SDS-PAGE of protein A-purified supernatant; construct expressed alone
[11] = biological target: IgG1 heavy chain with CH3 construct 79 (T366R) (human) [IgG part: P01857]; assay: as above
[12] = biological target: IgG1 heavy chain with CH3 construct 80 (L351E) (human) [IgG part: P01857]; assay: native MS; combination 14 co-expressed (A: VH MF1337, B: VH MF1122)
[13] = biological target: IgG1 heavy chain with CH3 construct 79 (T366R) (human) [IgG part: P01857]; assay: as above
[14] = biological target: IgG1 heavy chain with CH3 construct 7 (T366S, L368A, Y407V) (human) [IgG part: P01857]; assay: SDS-PAGE of protein A-purified supernatant; construct expressed alone
[15] = biological target: IgG1 heavy chain with CH3 construct 7 (T366S, L368A, Y407V) (human) [IgG part: P01857]; assay: native MS; transfection Q: vector X alone (thyroglobulin VH, construct 7)
[16] = biological target: IgG1 heavy chain with CH3 construct 76 (L351K, L368K) (human) [IgG part: P01857]; assay: native MS; combination 15 co-expressed (A: VH MF1337, B: VH MF1122)
[17] = biological target: IgG1 heavy chain with CH3 construct 76 (L351K, L368K) (human) [IgG part: P01857]; assay: SDS-PAGE of protein A-purified supernatant; construct expressed alone
[18] = biological target: IgG1 heavy chain with CH3 construct 2 (K392D, K409D) (human) [IgG part: P01857]; assay: native MS; transfection C: vector V alone (fibrinogen VH, construct 2)
[19] = biological target: IgG1 heavy chain with CH3 construct 2 (K392D, K409D) (human) [IgG part: P01857]; assay: SDS-PAGE of protein A-purified supernatant; construct expressed alone
[20] = biological target: IgG1 heavy chain with CH3 construct 2 (K392D, K409D) (human) [IgG part: P01857]; assay: native MS; transfection D: vector VI alone (tetanus VH, construct 2)
[21] = biological target: IgG1 heavy chain with CH3 construct 74 (L351D, Y349D) (human) [IgG part: P01857]; assay: native MS; combination 10 co-expressed (A: VH MF1337, B: VH MF1122)
[22] = biological target: IgG1 heavy chain with CH3 construct 74 (L351D, Y349D) (human) [IgG part: P01857]; assay: SDS-PAGE of protein A-purified supernatant; construct expressed alone
[23] = biological target: IgG1 heavy chain with CH3 construct 71 (L351D, Y349E) (human) [IgG part: P01857]; assay: native MS; combination 5 co-expressed (A: VH MF1337, B: VH MF1122)
[24] = biological target: IgG1 heavy chain with CH3 construct 71 (L351D, Y349E) (human) [IgG part: P01857]; assay: SDS-PAGE of protein A-purified supernatant; construct expressed alone
[25] = biological target: IgG1 heavy chain with CH3 construct 71 (L351D, Y349E) (human) [IgG part: P01857]; assay: native MS; combination 11 co-expressed (A: VH MF1337, B: VH MF1122)
[26] = biological target: IgG1 heavy chain with CH3 construct 77 (L351R) (human) [IgG part: P01857]; assay: native MS; combination 16 co-expressed (A: VH MF1337, B: VH MF1122)
[27] = biological target: IgG1 heavy chain with CH3 construct 77 (L351R) (human) [IgG part: P01857]; assay: SDS-PAGE of protein A-purified supernatant; construct expressed alone
[28] = biological target: IgG1 heavy chain with CH3 construct 80 (L351E) (human) [IgG part: P01857]; assay: native MS; combination 13 co-expressed (A: VH MF1337, B: VH MF1122)
[29] = biological target: IgG1 heavy chain with CH3 construct 80 (L351E) (human) [IgG part: P01857]; assay: SDS-PAGE of protein A-purified supernatant; construct expressed alone
[30] = biological target: IgG1 heavy chain with CH3 construct 6 (T366W) (human) [IgG part: P01857]; assay: native MS; transfection P: vector IX alone (tetanus VH, construct 6)
[31] = biological target: IgG1 heavy chain with CH3 construct 6 (T366W) (human) [IgG part: P01857]; assay: SDS-PAGE of protein A-purified supernatant; construct expressed alone
[32] = biological target: IgG1 heavy chain with CH3 construct 73 (L351D, Y349E, L368E) (human) [IgG part: P01857]; assay: as above
[33] = biological target: IgG1 heavy chain with CH3 construct 73 (L351D, Y349E, L368E) (human) [IgG part: P01857]; assay: native MS; combination 6 co-expressed (A: VH MF1337, B: VH MF1122)

## IgG1 heavy chain with CH3 construct 78 (T366E) (from UniProt P01857-1)
[1]
  % IgG: 44.4%
  % half molecule: 55.6%
[2]
  % AB found: 81%
[3]
  % AA found: 3%

## IgG1 heavy chain with CH3 construct 75 (L351D, Y349D, R355D) (from UniProt P01857-1)
[4]
  % IgG: 89.9%
  % half molecule: 10.1%
[5]
  % BB found: 2%

## IgG1 heavy chain with CH3 construct 3 (K392D, K409D, K439D) (from UniProt P01857-1)
[6]
  % IgG: 24.5%
  % half molecule: 75.5%
[7]
  Full IgG found (%): 36%
  Half molecules found (%): 64%
[8]
  Full IgG found (%): 24%
  Half molecules found (%): 76%

## IgG1 heavy chain with CH3 construct 70 (L351E, Y349E) (from UniProt P01857-1)
[9]
  % BB found: 0%
[10]
  % IgG: 67.8%
  % half molecule: 32.2%

## IgG1 heavy chain with CH3 construct 79 (T366R) (from UniProt P01857-1)
[11]
  % IgG: 29.6%
  % half molecule: 70.4%
[12]
  % AB found: 38%
[13]
  % AA found: 4%

## IgG1 heavy chain with CH3 construct 7 (T366S, L368A, Y407V) (from UniProt P01857-1)
[14]
  % IgG: 58.6%
  % half molecule: 41.4%
[15]
  Full IgG found (%): 42%
  Half molecules found (%): 58%

## IgG1 heavy chain with CH3 construct 76 (L351K, L368K) (from UniProt P01857-1)
[16]
  % BB found: 2.5%
[17]
  % IgG: 56.6%
  % half molecule: 43.4%

## IgG1 heavy chain with CH3 construct 2 (K392D, K409D) (from UniProt P01857-1)
[18]
  Full IgG found (%): 23%
  Half molecules found (%): 77%
[19]
  % IgG: 30.9%
  % half molecule: 69.1%
[20]
  Full IgG found (%): 77%
  Half molecules found (%): 23%

## IgG1 heavy chain with CH3 construct 74 (L351D, Y349D) (from UniProt P01857-1)
[21]
  % BB found: 1%
[22]
  % IgG: 88.6%
  % half molecule: 11.4%

## IgG1 heavy chain with CH3 construct 71 (L351D, Y349E) (from UniProt P01857-1)
[23]
  % BB found: 1%
[24]
  % IgG: 79.7%
  % half molecule: 20.3%
[25]
  % BB found: 0%

## IgG1 heavy chain with CH3 construct 77 (L351R) (from UniProt P01857-1)
[26]
  % BB found: 1%
[27]
  % IgG: 100%
[2]
  % BB found: 2%

## IgG1 heavy chain with CH3 construct 80 (L351E) (from UniProt P01857-1)
[28]
  % BB found: 10%
[29]
  % IgG: 100%
[12]
  % BB found: 36%

## IgG1 heavy chain with CH3 construct 6 (T366W) (from UniProt P01857-1)
[30]
  Full IgG found (%): 18%
  Half molecules found (%): 82%
[31]
  % IgG: 27.6%
  % half molecule: 72.4%

## IgG1 heavy chain with CH3 construct 73 (L351D, Y349E, L368E) (from UniProt P01857-1)
[32]
  % IgG: 79.3%
  % half molecule: 20.7%
[33]
  % BB found: 1%
